From article PMC10388305, “Synthesis and Evaluation of a Monomethyl Auristatin E—Integrin αvβ6 Binding Peptide–Drug Conjugate for Tumor Targeted Drug Delivery” (Journal of Medicinal Chemistry, 2023)
Like-named read-outs stand apart in the source and are kept apart here.

Assay: Biodistribution, paired DX3puroβ6/DX3puro xenograft tumor mouse model
Format: in vivo, mice
Settings: female, athymic nude, iv, total radioactivity, γ-counter, mean ± SD; for tissue uptake at 4 h / tissue uptake at 24 h / tissue uptake at 48 h: i.v.
Experimental: The biodistribution of [^64Cu]PDC-1 confirmed the αvβ6-selective tumor accumulation, with 4.46 ± 0.91% ID/g in the DX3puroβ6 (+) tumor at 4 h vs 0.56 ± 0.12% ID/g in the DX3puro (−) tumor (ratio = 8:1; Figure 6A, Table S3). […] For the BxPC-3 tumor, the uptake went from 4.61 ± 1.44% ID/g at 4 h to 3.73 ± 0.44 and 2.93 ± 0.80% ID/g, at 24 and 48 h, respectively (4 to 48 h: P = 0.054; Figure 6). […] Clearance from the blood was rapid, resulting in αvβ6 (+) tumor/blood ratios of ≥32:1 at 4 h (Table S5). [^64Cu]PDC-1 primarily cleared through the kidneys, from 50 to 64% ID/g at 4 h to ≤25% ID/g at 48 h (Figure 6). […] Accumulation in the liver remained steady between 1.5 and 2.2% ID/g at 4 to 48 h, and uptake in other organs such as muscle (≤0.9% ID/g) and pancreas (≤0.5% ID/g) was low at all time points (Figure 6).
All animal procedures conformed to the Animal Welfare Act and were approved by the University of California Davis Institutional Animal Care and Use Committee. All mice used for in vivo work were female athymic nude mice (6–8 weeks old) purchased from Charles River Laboratories (Wilmington, MA). For PET imaging and biodistribution studies, female athymic nude mice (6–8 weeks old) were injected subcutaneously with 3 × 10^6 DX3puro and 3 × 10^6 DX3puroβ6 cells in serum free DMEM on the right and left flank, respectively, or with 5 × 10^6 BxPC-3 cells in serum free RPMI 1640/Matrigel (1/1 v/v). Studies commenced once tumors reached a maximum diameter of ∼0.5 cm, approximately 3 weeks after inoculation. Food and water were available ad libitum. [^64Cu]PDC-1 was formulated in isotonic 0.9% saline to pH = 7.2 and administered intravenously (i.v.) via a catheter into the tail vein.
Aliquots of the formulated [^64Cu]PDC-1 in isotonic 0.9% saline (4.81–5.74 MBq, 1.7–2.1 μg, 0.26–0.31 nmol, 100 μL, pH 7.2) were injected i.v. as described above. Following the conscious uptake period, the mice were anesthetized (5% isoflurane), euthanized, and dissected (n ≥ 3/model/time point [4, 24, and 48 h]; the 48 h time point also included the imaging animals sacrificed after the PET scans). Tissues were collected, washed, weighed, and radioactivity measured in a γ-counter. Calibrated, decay-corrected radioactivity was expressed as the percentage of injected dose per gram of tissue (% ID/g). Data are reported as mean ± SD. The mean weights and standard deviation of the DX3puroβ6/DX3puro paired tumor model biodistribution mice were 24.3 ± 1.4 g at 4 h, 28.2 ± 2.9 g at 24 h, and 27.7 ± 2.6 g at 48 h. The mean weights and standard deviation of the BxPC-3 tumor model biodistribution mice were 25.1 ± 1.9 g at 4 h, 27.0 ± 1.1 g at 24 h and 27.1 ± 3.2 g at 48 h. For in vivo blocking studies, DOTA-2 (50 mg/kg, 205 nmol, 1.4 mg in 100 μL 0.9% saline) was injected i.v. into two animals/tumor model 10 min prior to [^64Cu]PDC-1. The animals were sacrificed after 4 h, tissues collected, washed, weighed, and radioactivity measured in a γ-counter. The mean weights and standard deviation for the blocking mice were 24.6 ± 0 and 27.9 ± 0.3 g for the DX3puroβ6/DX3puro paired and BxPC-3 tumor models, respectively.
Biodistribution data of [64Cu]PDC-1 in paired DX3puroβ6/DX3puro tumor model.
Table S3. Biodistribution of [ 64Cu]PDC-1 in mice bearing paired DX3puroβ6/DX3puro xenograft tumors.
Tissue uptake is expressed as the mean of the percentage of injected dose per gram of tissue ± standard
deviation (n = 4/ time point; n = 9 at 48 h); an = 3, bn = 8, cn = 7.

**Q.** What does the source list for CC[C@H](C)[C@@H]([C@@H](CC(=O)N1CCC[C@H]1[C@H](OC)[C@@H](C)C(=O)N[C@H](C)[C@@H](O)c1ccccc1)OC)N(C)C(=O)[C@@H](NC(=O)[C@H](C(C)C)N(C)C(=O)OCc1ccc(NC(=O)[C@H](CCCNC(N)=O)NC(=O)[C@@H](NC(=O)CCOCCOCCNC(=O)CCN2C(=O)CC(SC[C@H](NC(=O)CN3CCN(CC(=O)O)CCN(CC(=O)O)CCN(CC(=O)O)CC3)C(=O)NCCOCCOCCOCCOCCOCCOCCOCCOCCOCCOCCOCCOCCOCCOCCOCCOCCOCCOCCOCCOCCOCCOCCOCCOCCOCCOCCOCCOCCC(=O)N[C@@H](CC(N)=O)C(=O)N[C@@H](C)C(=O)N[C@H](C(=O)N3CCC[C@H]3C(=O)N[C@@H](CC(N)=O)C(=O)N[C@@H](CC(C)C)C(=O)N[C@@H](CCCNC(=N)N)C(=O)NCC(=O)N[C@@H](CC(=O)O)C(=O)N[C@@H](CC(C)C)C(=O)N[C@@H](CCC(N)=O)C(=O)N[C@H](C(=O)N[C@@H](CC(C)C)C(=O)N[C@@H](C)C(=O)N[C@@H](CCC(N)=O)C(=O)N[C@@H](CCCNC(=N)N)C(=O)N[C@H](C(=O)N[C@@H](C)C(=O)N[C@@H](CCCNC(=N)N)C(=O)N[C@H](C(=O)NCCOCCOCCOCCOCCOCCOCCOCCOCCOCCOCCOCCOCCOCCOCCOCCOCCOCCOCCOCCOCCOCCOCCOCCOCCOCCOCCOCCOCCC(N)=O)[C@@H](C)O)C(C)C)C(C)C)C(C)C)C2=O)C(C)C)cc1)C(C)C (stereo partly drawn) [[^64Cu]PDC-1, metal not drawn]?
**A.** tissue uptake at 4 h (DX3puro (αvβ6 −) tumor, 4 h p.i., n = 4, read-out: DX3puro (αvβ6 −) tumor uptake): 0.56 ± 0.12 %ID/g; tissue uptake at 24 h (DX3puro (αvβ6 −) tumor, 24 h p.i., n = 3, read-out: DX3puro (αvβ6 −) tumor uptake): 1.03 ± 0.12 %ID/g; tissue uptake at 48 h (DX3puro (αvβ6 −) tumor, 48 h p.i., n = 8, read-out: DX3puro (αvβ6 −) tumor uptake): 0.74 ± 0.2 %ID/g; tissue uptake at 4 h (DX3puroβ6 (αvβ6 +) tumor, 4 h p.i., n = 4, read-out: DX3puroβ6 (αvβ6 +) tumor uptake): 4.46 ± 0.91 %ID/g; tissue uptake at 24 h (DX3puroβ6 (αvβ6 +) tumor, 24 h p.i., n = 4, read-out: DX3puroβ6 (αvβ6 +) tumor uptake): 3.39 ± 0.56 %ID/g; tissue uptake at 48 h (DX3puroβ6 (αvβ6 +) tumor, 48 h p.i., n = 9, read-out: DX3puroβ6 (αvβ6 +) tumor uptake): 2.53 ± 0.37 %ID/g; tissue uptake at 4 h (bladder, 4 h p.i., n = 4, read-out: Bladder uptake): 2.12 ± 0.62 %ID/g; tissue uptake at 24 h (bladder, 24 h p.i., n = 4, read-out: Bladder uptake): 1.65 ± 0.44 %ID/g; tissue uptake at 48 h (bladder, 48 h p.i., n = 9, read-out: Bladder uptake): 1.66 ± 0.28 %ID/g; tissue uptake at 4 h (blood, 4 h p.i., n = 4, read-out: Blood uptake): 0.14 ± 0.02 %ID/g; tissue uptake at 24 h (blood, 24 h p.i., n = 4, read-out: Blood uptake): 0.29 ± 0.03 %ID/g; tissue uptake at 48 h (blood, 48 h p.i., n = 9, read-out: Blood uptake): 0.34 ± 0.09 %ID/g; tissue uptake at 4 h (bone, 4 h p.i., n = 4, read-out: Bone uptake): 0.43 ± 0.18 %ID/g; tissue uptake at 24 h (bone, 24 h p.i., n = 4, read-out: Bone uptake): 0.38 ± 0.08 %ID/g; tissue uptake at 48 h (bone, 48 h p.i., n = 9, read-out: Bone uptake): 0.33 ± 0.1 %ID/g; tissue uptake at 4 h (brain, 4 h p.i., n = 4, read-out: Brain uptake): 0.04 ± 0.01 %ID/g; tissue uptake at 24 h (brain, 24 h p.i., n = 4, read-out: Brain uptake): 0.07 ± 0.01 %ID/g; tissue uptake at 48 h (brain, 48 h p.i., n = 9, read-out: Brain uptake): 0.09 ± 0.03 %ID/g; tissue uptake at 4 h (gall bladder, 4 h p.i., n = 4, read-out: Gall bladder uptake): 3.64 ± 0.79 %ID/g; tissue uptake at 24 h (gall bladder, 24 h p.i., n = 4, read-out: Gall bladder uptake): 3.16 ± 0.49 %ID/g; tissue uptake at 48 h (gall bladder, 48 h p.i., n = 9, read-out: Gall bladder uptake): 1.42 ± 0.63 %ID/g; tissue uptake at 4 h (heart, 4 h p.i., n = 4, read-out: Heart uptake): 0.82 ± 0.17 %ID/g; tissue uptake at 24 h (heart, 24 h p.i., n = 4, read-out: Heart uptake): 0.84 ± 0.15 %ID/g; tissue uptake at 48 h (heart, 48 h p.i., n = 9, read-out: Heart uptake): 0.85 ± 0.18 %ID/g; tissue uptake at 4 h (kidney, 4 h p.i., n = 4, read-out: Kidney uptake): 63.9 ± 12.5 %ID/g; tissue uptake at 24 h (kidney, 24 h p.i., n = 4, read-out: Kidney uptake): 41.2 ± 4.47 %ID/g; tissue uptake at 48 h (kidney, 48 h p.i., n = 9, read-out: Kidney uptake): 22.9 ± 5.48 %ID/g; tissue uptake at 4 h (large intestines, 4 h p.i., n = 4, read-out: Lg. Intestines uptake): 6.25 ± 0.74 %ID/g; tissue uptake at 24 h (large intestines, 24 h p.i., n = 4, read-out: Lg. Intestines uptake): 3.98 ± 0.83 %ID/g; tissue uptake at 48 h (large intestines, 48 h p.i., n = 9, read-out: Lg. Intestines uptake): 3.04 ± 0.73 %ID/g; tissue uptake at 4 h (liver, 4 h p.i., n = 4, read-out: Liver uptake): 1.34 ± 0.29 %ID/g; tissue uptake at 24 h (liver, 24 h p.i., n = 4, read-out: Liver uptake): 2.25 ± 0.59 %ID/g; tissue uptake at 48 h (liver, 48 h p.i., n = 9, read-out: Liver uptake): 2.15 ± 0.62 %ID/g; tissue uptake at 4 h (lung, 4 h p.i., n = 4, read-out: Lung uptake): 3.08 ± 0.78 %ID/g; tissue uptake at 24 h (lung, 24 h p.i., n = 4, read-out: Lung uptake): 2.19 ± 0.42 %ID/g; tissue uptake at 48 h (lung, 48 h p.i., n = 9, read-out: Lung uptake): 1.71 ± 0.44 %ID/g; tissue uptake at 4 h (muscle, 4 h p.i., n = 4, read-out: Muscle uptake): 0.89 ± 0.11 %ID/g; tissue uptake at 24 h (muscle, 24 h p.i., n = 4, read-out: Muscle uptake): 0.56 ± 0.07 %ID/g; tissue uptake at 48 h (muscle, 48 h p.i., n = 9, read-out: Muscle uptake): 0.48 ± 0.14 %ID/g; tissue uptake at 4 h (pancreas, 4 h p.i., n = 4, read-out: Pancreas uptake): 0.36 ± 0.07 %ID/g; tissue uptake at 24 h (pancreas, 24 h p.i., n = 4, read-out: Pancreas uptake): 0.45 ± 0.05 %ID/g; tissue uptake at 48 h (pancreas, 48 h p.i., n = 9, read-out: Pancreas uptake): 0.52 ± 0.25 %ID/g; tissue uptake at 4 h (skin, 4 h p.i., n = 4, read-out: Skin uptake): 1.96 ± 0.5 %ID/g; tissue uptake at 24 h (skin, 24 h p.i., n = 4, read-out: Skin uptake): 1.26 ± 0.36 %ID/g; tissue uptake at 48 h (skin, 48 h p.i., n = 9, read-out: Skin uptake): 1 ± 0.34 %ID/g; tissue uptake at 4 h (small intestines, 4 h p.i., n = 4, read-out: Sm. Intestines uptake): 4.67 ± 0.66 %ID/g; tissue uptake at 24 h (small intestines, 24 h p.i., n = 4, read-out: Sm. Intestines uptake): 2.73 ± 0.28 %ID/g; tissue uptake at 48 h (small intestines, 48 h p.i., n = 9, read-out: Sm. Intestines uptake): 1.53 ± 0.21 %ID/g; tissue uptake at 4 h (spleen, 4 h p.i., n = 4, read-out: Spleen uptake): 0.21 ± 0.08 %ID/g; tissue uptake at 24 h (spleen, 24 h p.i., n = 4, read-out: Spleen uptake): 0.58 ± 0.03 %ID/g; tissue uptake at 48 h (spleen, 48 h p.i., n = 9, read-out: Spleen uptake): 0.54 ± 0.12 %ID/g; tissue uptake at 4 h (stomach, 4 h p.i., n = 4, read-out: Stomach uptake): 8.97 ± 0.76 %ID/g; tissue uptake at 24 h (stomach, 24 h p.i., n = 4, read-out: Stomach uptake): 4.86 ± 0.56 %ID/g; tissue uptake at 48 h (stomach, 48 h p.i., n = 9, read-out: Stomach uptake): 3 ± 0.56 %ID/g; excreta dose per gram or mL at 4 h (urine, 4 h p.i., n = 4): 13 ± 2.4 %ID/g; excreta dose per gram or mL at 24 h (urine, 24 h p.i., n = 4): 4.57 ± 0.87 %ID/g; excreta dose per gram or mL at 48 h (urine, 48 h p.i., n = 7): 1.6 ± 0.47 %ID/g
